This note sets out measurements from doi:10.1101/2021.01.13.426390.

For assay [1], the target named is T1, His6-AGR2, purified recombinant, O95994.
T1 chain: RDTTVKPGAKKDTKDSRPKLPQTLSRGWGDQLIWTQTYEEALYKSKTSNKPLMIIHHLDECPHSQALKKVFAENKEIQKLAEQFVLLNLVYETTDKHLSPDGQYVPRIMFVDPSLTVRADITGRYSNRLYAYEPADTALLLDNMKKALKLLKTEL
In words: non-reducing SDS-PAGE and immunoblot of disulfide-bonded complexes. Particulars: remark: other sources report otherwise. For orientation: In western blotting, separated proteins are transferred to a membrane and probed.

For assay [2], the target named is T2, wild type AGR2, enforced expression, O95994.
T2 chain: T1 chain
Described as above. Particulars: remark: other sources report otherwise.

B1: His6-AGR2, purified recombinant, O95994 21-175 (natural protein)
chain: T1 chain
As usually defined, the stoichiometry N is a count of units in the complex or per binding partner. With B1, the stoichiometry N in assay [1] was 2.

B2: wild type AGR2, enforced expression, O95994 21-175 (natural protein)
chain: T1 chain
Consider B2, for which the stoichiometry N in assay [2] worked out at 2.
